{"source": "patent US20160038588A1", "about": "“Myostatin Antagonism in Human Subjects” (AMGEN INC., priority 2013, published 2016)", "key": {"[1]": {"assay": "Clinical study: pharmacokinetics of AMG 745 after weekly SC doses", "conditions": "for AUC0-τ / Cmax / CL/F (apparent serum clearance, Dose/AUC Week 4): mean; for AUC0-τ: 7-day dosing interval; for Cmax: serum; for tmax: median", "method": "(§1) This was a multicenter, randomized, double-blind, placebo-controlled, ascending-multiple-dose study in men with prostate cancer receiving ADT. The trial was designed to evaluate the safety, tolerability, PK, and pharmacodynamics of AMG 745.\n(§2) Subcutaneous doses of 0.3 mg/kg, 1.0 mg/kg, and 3.0 mg/kg, were each administered once weekly for 4 weeks, and were evaluated in sequential cohorts. Eight subjects, randomized in a 3:1 allocation ratio to AMG 745 or placebo, were enrolled in the 0.3 mg/kg dose cohort and in the 1.0 mg/kg dose cohort. To evaluate safety, tolerability, PK and the effect of 4 weekly doses on lean body mass, a total of thirty-eight subjects were enrolled in the 3.0 mg/kg dose cohort, randomized in a 1:1 allocation ratio to AMG 745 or placebo.\n(§3) The following procedures were performed pre-study and periodically during the study for all cohorts: physical examination, vital signs, electrocardiogram, hematology, chemistry, urinalysis, anti-AMG 745 antibody screen, and blood sample draws for PK. For the 3 mg/kg cohort DXA and lower extremity CT scans were conducted predose and on study day 29 (end of study) and at the one month follow-up visit. All DXA scans were performed on a Hologic or GE Lunar scanner. The same scanner was to be used for all visits for an individual subject. All DXA scans were sent to a central reading facility for review and analysis.\n(§4) The pharmacokinetic analyses included all treated subjects for whom the pharmacokinetic parameters could be estimated. Pharmacokinetic parameters were estimated using noncompartmental methods. Summary statistics by dose cohort were generated for each pharmacokinetic parameter. Graphs of serum AMG 745 concentration-time profiles for individual subjects and the means for each dose were prepared."}, "[2]": {"conditions": "human, in vivo, sc", "method": "as §1, §2, §3, §4"}, "[3]": {"conditions": "Week 1 (Dose 1), 0.3 mg/kg SC once-weekly"}, "[4]": {"conditions": "Week 1 (Dose 1), 1 mg/kg SC once-weekly"}, "[5]": {"conditions": "Week 1 (Dose 1), 3 mg/kg SC once-weekly"}, "[6]": {"conditions": "Week 4 (Dose 4), 0.3 mg/kg SC once-weekly"}, "[7]": {"conditions": "Week 4 (Dose 4), 1 mg/kg SC once-weekly"}, "[8]": {"conditions": "Week 4 (Dose 4), 3 mg/kg SC once-weekly"}}, "note": "Like-named read-outs stand apart in the source and are kept apart here."}
{"substance": "AMG 745: anti-myostatin peptibody: human IgG1 Fc fused at C-terminus via GGGGGAQ linker to peptide SEQ ID NO:311; chain SEQ ID NO:635", "values": [{"measurement": "dose linearity of pharmacokinetics", "setting": "[1]; 4 weekly SC doses, 0.3 to 3 mg/kg", "value": "dose-linear pharmacokinetics"}, {"measurement": "AUC0-τ", "setting": "[1]; [3]", "value": 68.0, "unit": "µg·h/mL"}, {"measurement": "Cmax", "setting": "[1]; [3]", "value": 502, "unit": "ng/mL"}, {"measurement": "tmax", "setting": "[1]; Week 1 (Dose 1), 0.3 mg/kg SC once-weekly, men with prostate cancer on ADT", "value": 72.4, "unit": "h"}, {"measurement": "AUC0-τ", "setting": "[1]; [4]", "value": 321, "unit": "µg·h/mL"}, {"measurement": "Cmax", "setting": "[1]; [4]", "value": 2380, "unit": "ng/mL"}, {"measurement": "tmax", "setting": "[1]; Week 1 (Dose 1), 1 mg/kg SC once-weekly, men with prostate cancer on ADT", "value": 24.3, "unit": "h"}, {"measurement": "AUC0-τ", "setting": "[1]; [5]", "value": 800, "unit": "µg·h/mL"}, {"measurement": "Cmax", "setting": "[1]; [5]", "value": 6380, "unit": "ng/mL"}, {"measurement": "tmax", "setting": "[1]; Week 1 (Dose 1), 3 mg/kg SC once-weekly, men with prostate cancer on ADT", "value": 71.8, "unit": "h"}, {"measurement": "CL/F (apparent serum clearance, Dose/AUC Week 4)", "setting": "[1]; [6]", "value": 1.96, "unit": "mL/h/kg"}, {"measurement": "AUC0-τ", "setting": "[1]; [6]", "value": 175, "unit": "µg·h/mL"}, {"measurement": "Cmax", "setting": "[1]; [6]", "value": 1340, "unit": "ng/mL"}, {"measurement": "tmax", "setting": "[1]; [6]", "value": 47.8, "unit": "h"}, {"measurement": "CL/F (apparent serum clearance, Dose/AUC Week 4)", "setting": "[1]; [7]", "value": 1.89, "unit": "mL/h/kg"}, {"measurement": "AUC0-τ", "setting": "[1]; [7]", "value": 556, "unit": "µg·h/mL"}, {"measurement": "Cmax", "setting": "[1]; [7]", "value": 4170, "unit": "ng/mL"}, {"measurement": "tmax", "setting": "[1]; [7]", "value": 24.0, "unit": "h"}, {"measurement": "CL/F (apparent serum clearance, Dose/AUC Week 4)", "setting": "[1]; [8]", "value": 2.29, "unit": "mL/h/kg"}, {"measurement": "AUC0-τ", "setting": "[1]; [8]", "value": 1380, "unit": "µg·h/mL"}, {"measurement": "Cmax", "setting": "[1]; [8]", "value": 10800, "unit": "ng/mL"}, {"measurement": "tmax", "setting": "[1]; [8]", "value": 24.0, "unit": "h"}, {"measurement": "AR (accumulation ratio, AUC Week 4/AUC Week 1)", "setting": "[2]; 0.3 mg/kg", "value": 2.55}, {"measurement": "AR (accumulation ratio, AUC Week 4/AUC Week 1)", "setting": "[2]; 3 mg/kg", "value": 1.78}]}
